From patent publication US20150353911

Molecular target: FVII-186, P08709
Sequence (P08709 whole entry, looked up): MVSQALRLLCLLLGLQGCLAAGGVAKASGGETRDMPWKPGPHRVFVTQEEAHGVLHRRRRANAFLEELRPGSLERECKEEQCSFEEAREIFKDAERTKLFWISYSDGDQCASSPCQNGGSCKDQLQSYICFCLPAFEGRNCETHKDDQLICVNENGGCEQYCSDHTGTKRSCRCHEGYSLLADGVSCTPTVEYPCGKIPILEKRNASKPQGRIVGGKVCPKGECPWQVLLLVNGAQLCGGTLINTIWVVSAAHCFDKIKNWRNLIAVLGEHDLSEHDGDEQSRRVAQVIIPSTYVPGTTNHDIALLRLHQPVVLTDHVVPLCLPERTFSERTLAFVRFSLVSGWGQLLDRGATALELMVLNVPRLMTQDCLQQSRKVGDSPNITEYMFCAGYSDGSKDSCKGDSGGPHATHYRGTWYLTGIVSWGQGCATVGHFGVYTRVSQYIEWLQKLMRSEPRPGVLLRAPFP

B1: SUMO protease (Invitrogen Cat. No. 12588-018) (protein)
chain: LVPELNEKDDDQVQKALASRENTQLMNRDNIEITVRDFKTLAPRRWLNDTIIEFFMKYIEKSTPNTVAFNSFFYTNLSERGYQGVRRWMKRKKTQIDKLDKIFTPINLNQSHWALGIIDLKKKTIGYVDSLSNGPNAMSFAILTDLQKYVMEESKHTIGEDFDLIHLDCPQQPNGYDCGIYVCMNTLYGSADAPLDFDYKDAIRMRRFIAHLILTDALK
- cleavage of SUMO from FVII-186 (reducing SDS-PAGE): showed almost complete conversion of FVII-186 to the desired FVIIHC
